Measured values taken from US20230220059A1 (CRISPR THERAPEUTICS, published 2023).

Columns and labels:
[1] = molecular target: T1, biotinylated recombinant human BCMA (Acro Biosystems Cat: #BC7-H82F0) (human, UniProt Q02223 1-54, biotinylated); assay: flow cytometry; CTX120 cells stained with biotinylated BCMA and fluorescent streptavidin
T1 construct: Bought reagent; Detected with fluorescent streptavidin
T1 sequence (looked up): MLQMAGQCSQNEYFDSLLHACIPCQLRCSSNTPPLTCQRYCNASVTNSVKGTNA
Protocol: The resultant genetically engineered T cells were characterized for incorporation of the desired gene edits: loss of TCR, loss of MHC I expression, and expression of an anti-BCMA CAR. Approximately one week after gene-editing, allogeneic T cells were assessed for surface expression of TCR, β2M, and anti-BCMA CAR using flow cytometry. The allogeneic cells were stained with biotinylated recombinant human BCMA (Acro Biosystems Cat: #BC7-H82F0) and tagged with fluorescent streptavidin and with fluorescent antibodies targeting cell surface markers. The percentage of cells that were TCR⁻, β2M⁻, and anti-BCMA CAR⁺ was determined. Nine lots of CTX120 cells were prepared from eight healthy donors.

mouse BCMA = molecular target: T2, mouse BCMA (mouse, UniProt O88472 1-49, limits assumed); assay: not described (statement within Example 5)
T2 construct: also called murine BCMA
T2 chain (looked up): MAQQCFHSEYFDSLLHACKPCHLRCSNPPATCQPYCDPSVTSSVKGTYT

binding result [1]: binds
binding result (mouse BCMA): no binding
B1: anti-BCMA CAR (CTX-166b) expressed on CTX120 cells (other)
chain: QVQLVQSGAELKKPGASVKVSCKASGNTLTNYVIHWVRQAPGQRLEWMGYILPYNDLTKYSQKFQGRVTITRDKSASTAYMELSSLRSEDTAVYYCTRWDWDGFFDPWGQGTTVTVSSGGGGSGGGGSGGGGSEIVMTQSPATLSVSPGERASISCRASQSLVHSNGNTHLHWYQQRPGQAPRLLIYSVSNRFSEVPARFSGSGSGTDFTLTISSVESEDFAVYYCSQTSHIPYTFGGGTKLEIKSAAAFVPVFLPAKPTTTPAPRPPTPAPTIASQPLSLRPEACRPAAGGAVHTRGLDFACDIYIWAPLAGTCGVLLLSLVITLYCNHRNRKRGRKKLLYIFKQPFMRPVQTTQEEDGCSCRFPEEEEGGCELRVKFSRSADAPAYQQGQNQLYNELNLGRREEYDVLDKRRGRDPEMGGKPRRKNPQEGLYNELQKDKMAEAYSEIGMKGERRRGKGHDGLYQGLSTATKDTYDALHMQALPPR
notes: TRAC and B2M disrupted; also called CTX120 anti-BCMA CAR
